Test results from PMC6168860, “Dual Role of a Viral Polymerase in Viral Genome Replication and Particle Self-Assembly” (mBio, 2018).
Positions count from the first letter of the chain named. Names and notes keep the numbering of the source.

B1: Pseudomonas phage Φ6 major capsid protein P1 (natural protein, UniProt P11126 1-769, looked up)
chain: MFNLKVKDLNGSARGLTQAFAIGELKNQLSVGALQLPLQFTRTFSASMTSELLWEVGKGNIDPVMYARLFFQYAQAGGALSVDELVNQFTEYHQSTACNPEIWRKLTAYITGSSNRAIKADAVGKVPPTAILEQLRTLAPSEHELFHHITTDFVCHVLSPLGFILPDAAYVYRVGRTATYPNFYALVDCVRASDLRRMLTALSSVDSKMLQATFKAKGALAPALISQHLANAATTAFERSRGNFDANAVVSSVLTILGRLWSPSTPKELDPSARLRNTNGIDQLRSNLALFIAYQDMVKQRGRAEVIFSDEELSSTIIPWFIEAMSEVSPFKLRPINETTSYIGQTSAIDHMGQPSHVVVYEDWQFAKEITAFTPVKLANNSNQRFLDVEPGISDRMSATLAPIGNTFAVSAFVKNRTAVYEAVSQRGTVNSNGAEMTLGFPSVVERDYALDRDPMVAIAALRTGIVDESLEARASNDLKRSMFNYYAAVMHYAVAHNPEVVVSEHQGVAAEQGSLYLVWNVRTELRIPVGYNAIEGGSIRTPEPLEAIAYNKPIQPSEVLQAKVLDLANHTTSIHIWPWHEASTEFAYEDAYSVTIRNKRYTAEVKEFELLGLGQRRERVRILKPTVAHAIIQMWYSWFVEDDRTLAAARRTSRDDAEKLAIDGRRMQNAVTLLRKIEMIGTTGIGASAVHLAQSRIVDQMAGRGLIDDSSDLHVGINRHRIRIWAGLAVLQMMGLLSRSEAEALTKVLGDSNALGMVVATTDIDPSL
notes: major capsid protein P1 of Pseudomonas phage Φ6, wild type; The shell holds 120 copies of P1 (60 asymmetric P1A/P1B dimers) by the introduction; In the recombinant PCs of a11 P1 was co-expressed from pLM687 in E. coli JM109; also called main structural P1 protein; P1 shell; source: E. coli JM109, P1P4 particles from plasmid pLM358, P1 purified as previously described
B2: Φ6 P2 surface mutant HER (histidine-tagged) (enzyme, Pseudomonas phage Φ6, UniProt P11124 1-665, looked up)
chain: MPRRAPAFPLSDIKAQMLFANNIKAQQASKRSFKEGAIETYEGLLSVDPRFLSFKNELSRYLTDHFPANVDEYGRVYGNGVRTNFFGMRHMNGFPMIPATWPLASNLKKRADADLADGPVSERDNLLFRAAVRLMFSDLEPVPLKIRKGSSTCIPYFSNDMGTKIEIAERALEKAEEAGNLMLQGKFDDAYQLHQMGGAYYVVYRAQSTDAITLDPKTGKFVSKDRMVADFEYAVTGGEQGSLFAASKDASRLKEQYGIDVPDGFFCERRRTAMGGPFALNAPIMAVAQPVRNKIYSKYAYTFHHTTRLNKEEKVKEWSLCVATDVSDHDTFWPGWLRDLICDELLNMGYAPWWVKLFETSLKLPVYVGAPAPEQGHTLLGDPSNPDLEVGLSSGQGATDLMGTLLMSITYLVMQLDHTAPHLNSRIKDMPSACRFLDSYWQGAQEIRQISKSDDAILGWTKGRALVGGHALFEMLKEGKVNPSPYMKISYEHGGAFLGDILLYDSRREPGSAIFVGNINSMLNNQFSPEYGVQSGVRDRSKRKRPFPGLAWASMKDTYGACPIYSDVLEAIERCWWNAFGESYRAYREDMLKRDTLELSRYVASMARQAGLAELTPIDLEVLADPNKLQYKWTEADVSANIHEVLMHGVSVEKTERFLRSVMPR
notes: RNA-dependent RNA polymerase P2 of Pseudomonas phage Φ6 with His443 to Ala, Glu444 to Gln and Arg470 to Ala, made from pEM33 (C-terminal hexahistidine tag); source: E. coli BL21(DE3), plasmid pXS29, purified as described for N-terminally histidine-tagged P2; not shown: His6, C-terminal, kept
B3: Φ6 P2 surface mutant HERW (histidine-tagged) (enzyme, Pseudomonas phage Φ6, UniProt P11124 1-665, looked up)
chain: B2 chain with W577A
notes: source: E. coli BL21(DE3), plasmid pXS30, purified as described for N-terminally histidine-tagged P2; not shown: His6, C-terminal, kept
B4: Φ6 P2 surface mutant W576A (histidine-tagged) (enzyme, Pseudomonas phage Φ6, UniProt P11124 1-665, looked up)
chain: B2 chain with A444H, Q445E, A471R, W577A
notes: RNA-dependent RNA polymerase P2 of Pseudomonas phage Φ6 with Trp576 to Ala, made from pEM33 (C-terminal hexahistidine tag); source: E. coli BL21(DE3), plasmid pXS28, purified as described for N-terminally histidine-tagged P2; not shown: His6, C-terminal, kept

Key:
[1] = target: the molecule itself; test: co-sedimentation; in vitro self-assembly of purified P1 and P4 (120:72), no P2, no P7 (P1P4 reaction); room temperature, 90 min, 250 to 350 mM NaCl, 20 mM Tris pH 8.0, 6% PEG 4000, P1 about 0.2 mg/ml; rate-zonal centrifugation in 10% to 30% sucrose, light-scattering zones analysed by SDS-PAGE
[2] = target: B1; test: co-sedimentation; in vitro self-assembly of purified P1, P4 (120:72) and P2 or P2 variant at 10×P2 (P1:P2 120:120), no P7; room temperature, 90 min, 250 to 350 mM NaCl, 20 mM Tris pH 8.0, 6% PEG 4000; rate-zonal centrifugation in 10% to 30% sucrose, P2 copies per particle from SDS-PAGE; conditions: both partners purified

| Binder | binding result [1] | copies of P2 variant per particle [2] [copies per particle] |
| --- | --- | --- |
| B1 | binds | – |
| B2 | – | 6 |
| B3 | – | 4 |
| B4 | – | 12 |
